Laboratory results published in patent US20160075790A1 (Bristol-Myers Squibb, published 2016).
Positions count from the first letter of the chain named. Where “and” joins values, the source holds several entries; their conditions need not be identical. Identical values can stand only once.

T1: human CD40L, membrane-bound on cells (human, UniProt P29965 1-261)
T1 sequence: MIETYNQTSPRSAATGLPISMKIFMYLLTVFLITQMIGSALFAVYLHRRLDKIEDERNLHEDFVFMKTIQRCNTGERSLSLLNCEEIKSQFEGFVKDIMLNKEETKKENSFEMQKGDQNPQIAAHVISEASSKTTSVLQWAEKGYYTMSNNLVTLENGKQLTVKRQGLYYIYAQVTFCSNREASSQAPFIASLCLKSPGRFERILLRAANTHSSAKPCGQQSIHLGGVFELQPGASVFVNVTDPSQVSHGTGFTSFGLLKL

T2: human isoleucine zipper-CD40L (IZ-hCD40L) (human, UniProt P29965 113-261)
T2 sequence: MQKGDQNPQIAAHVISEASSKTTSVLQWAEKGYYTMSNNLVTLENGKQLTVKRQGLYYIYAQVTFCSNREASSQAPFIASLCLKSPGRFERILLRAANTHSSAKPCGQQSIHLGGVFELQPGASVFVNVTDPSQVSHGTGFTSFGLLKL

B1: 2h116-1320-Fc (Fc fusion, not shown: a dimerising Fc or GST)
chain: DIQMTQSPSSLSAYVGDRVTITCRASQPIGPDLLWYQQKPGKAPKLLIYQTSILRSGVPSRFSGSGSETDFTLTISNLQPEDFAKYYCQQYWAFPVTFGQGTKVVIKR
B2: 2h503-1 Fc (Fc fusion, not shown: a dimerising Fc or GST)
chain: DIQMTQSPSSLSASVGDRVTITCRASHHIQRYLSWYQQKPGKAPKLLILWGSQLQSGVPSRFSGSGSGTDFTLTISSLQPEDFATYYCGQWWAPPQTFGQGTKVEIKR
B3: 2h572-6 Fc (Fc fusion, not shown: a dimerising Fc or GST)
chain: EVQLLESGGGLVQPGGSLRLSCAASGFTFNWQLMGWVRQAPGKGLEWVSGIEGPGDVTYYADSVKGRFTISRDNSKNTLYLQMNSLRAEDTAVYYCVKVGKESNSDYRGQGTLVTVSS
B4: 2h572-619-Ctshort Fc (Fc fusion, not shown: a dimerising Fc or GST)
chain: B3 chain with E102D, N104R
B5: 2h572-633 Fc (Fc fusion, not shown: a dimerising Fc or GST)
chain: B3 chain with Q32E, V37A, E102D, S103A, N104K
B6: 2h572-633-CT-Fc SP5 (Fc fusion, not shown: a dimerising Fc or GST)
chain: B3 chain with Q32E, V37A, E102D, S103A, N104K
B7: 2h572-635 Fc (Fc fusion, not shown: a dimerising Fc or GST)
chain: B3 chain with Q32E, V37A, E102D, N104K
B8: 2h572-619-N297Qlong Fc (Fc fusion, not shown: a dimerising Fc or GST)
chain: B3 chain with E102D, N104R
B9: 2h572-619-N297Qshort Fc (Fc fusion, not shown: a dimerising Fc or GST)
chain: B3 chain with E102D, N104R
B10: 2h572-608-N297Qshort Fc (Fc fusion, not shown: a dimerising Fc or GST)
chain: B3 chain with Q32E, V37A
B11: 2h572-634 Fc (Fc fusion, not shown: a dimerising Fc or GST)
chain: B3 chain with Q32E, V37A, E102D, N104R
B12: BMS2h-503-2 (other)
VL: B2 chain with H28D
B13: BMS2h-572-623 (other)
VH: B3 chain with N104S
B14: BMS2h-572-614 (other)
VH: B3 chain with E102D, S103A, N104K
B15: BMS2h-572-617 (other)
VH: B3 chain with K101R, E102D, N104K
B16: BMS2h-572-622 (other)
VH: B3 chain with E102D, N104T
B17: BMS2h-572-610 (other)
VH: B3 chain with E102D, N104K
B18: BMS2h-572-619 (other)
VH: B3 chain with E102D, N104R
B19: BMS2h-572-616 (other)
VH: B3 chain with N104K
B20: BMS2h-572-604 (other)
VH: B3 chain with N30K
B21: BMS2h-572-631 (other)
VH: B3 chain with N30K, E102D, N104R
B22: BMS2h-572-630 (other)
VH: B3 chain with N30K, E102D, S103A, N104K
B23: BMS2h-572-608 (other)
VH: B3 chain with Q32E, V37A

Target: human isoleucine zipper-CD40L (IZ-hCD40L) (human) (UniProt P29965)
Test: cell-based or functional assay

Binder | hIZCD40L-driven Human B Cell Proliferation EC50 [nM]
B1 | 13
B2 | 4
B3 | 0.6
B4 | 1.5
B5 | 3.5
B6 | 5
B7 | 2
B8 | 0.98
B9 | 0.9
B10 | 1
B11 | 3

Target: T1, human CD40L, membrane-bound on cells
Test: cell-based or functional assay

Binder | CHO-hCD40L-driven DC Activation IL-12 EC50 [nM] | CHO-hCD40L-driven Human B Cell Proliferation EC50 [nM] | T-B cell MLR EC50 | T-B cell MLR IL-6 EC50 | CHO-hCD40L-driven DC Activation IL-6 EC50 [nM] | CHO-hCD40L-driven DC Activation TNF EC50 [nM]
B1 | 14 | > 130 | 244 nM |  |  | 
B2 | 2.8 | 60 | 45 nM |  |  | 
B3 | 0.22 | 3 | 1.9 nM |  |  | 
B4 | 1.8 | 2 | 0.4 nM | 0.3 nM |  | 
B5 | 0.34 | 3 | 0.15 nM | 0.11 nM |  | 
B6 | 2.3 | 1 | 0.161 nM | 0.13 nM | 1.5 | 2.9
B7 | 0.445 | 2.5 | 0.16 nM | 0.11 nM |  | 
B8 | 1.1 | 2 | 0.48 nM and 0.474 nM | 0.22 nM and 0.11 nM |  | 
B9 | 1.2 | 1 | 0.226 nM and 0.216 nM | 0.1 nM |  | 
B10 | 0.93 | 2 |  |  |  | 
B11 | 0.42 | 3.5 | 0.23 nM | 0.19 nM |  | 

Target: T2, human isoleucine zipper-CD40L …
Test: cell-based or functional assay

Binder | hIZCD40L-driven Human B Cell Proliferation EC50
B12 | 44 nM
B13 | 181 nM and 261 nM
B14 | 93 nM
B15 | 157 nM and 189 nM
B16 | 301 nM and 293 nM
B17 | 109 nM
B18 | 90 nM
B19 | 204 nM and 340 nM
B20 | 254 nM and 354 nM
B21 | 108 nM
B22 | 103 nM
B23 | 96 nM

Target: T1, human CD40L, membrane-bound on cells
Test: cell-based or functional assay
Remark: another data set of the same source

Binder | CHO-hCD40L-driven DC Activation IL-12 EC50 [nM] | CHO-hCD40L-driven Human B Cell Proliferation EC50 [nM] | T-B cell MLR EC50 [µM]
B12 | 1560 | 3000 | 
B13 | 280 |  | > 7
B14 | 135 |  | > 7
B15 | 338 |  | > 7
B16 | 281 |  | > 7
B17 | 207 |  | > 7
B18 | 188 |  | > 7
B19 | 608 |  | > 7
B20 | 387 | > 700 | 
B21 | 230 |  | 
B22 | 246 |  | 
B23 | 152 |  | > 7
